# B1: PR000303 (bispecific antibody, human IgG1, kappa)
# light: DIQMTQSPSTLSASVGDRVTVTCRASQSIYIWLAWYQQKPGKAPNLLIYKASSLETGVPSRFSGSGSGTEFTLTISSLQPDDFATYYCQQYYGSSRTFGQGTKVEIKRTVAAPSVFIFPPSDEQLKSGTASVVCLLNNFYPREAKVQWKVDNALQSGNSQESVTEQDSKDSTYSLSSTLTLSKADYEKHKVYACEVTHQGLSSPVTKSFNRGEC
# chain: not shown
# B2: PR000302 (bispecific antibody, human IgG1, kappa)
# chain: DIQMTQSPSTLSASVGDRVTVTCRASQSIYIWLAWYQQKPGKAPNLLIYKASSLETGVPSRFSGSGSGTEFTLTISSLQPDDFATYYCQQYYGSSRTFGQGTKVEIKRTVAAPSVFIFPPSDEQLKSGTASVVCLLNNFYPREAKVQWKVDNALQSGNSQESVTEQDSKDSTYSLSSTLTLSKADYEKHKVYACEVTHQGLSSPVTKSFNRGECEPKSSDKTHTPPPPPEVQLVESGGGLIQPGGSLRLSCAVSGFTVSKNYMSWVRQAPGKGLEWVSVVYSGGSKTYADSVKGRFTISRDNSKNTLYLQMNSLRAEDTAVYYCARAVPHSPSSFDIWGQGTMVTVSS
# heavy: not shown
# B3: PR002672 (bispecific antibody)
# chain 1: not shown
# chain 2: not shown
# chain 3: EVQLVESGGGLIQPGGSLRLSCAVSGFTVSKNYMSWVRQAPGKGLEWVSVVYSGGSKTYADSVKGRFTISRDNSKNTLYLQMNSLRAEDTAVYYCARAVPHSPSSFDIWGQGTMVTVSSGGGGSEVQLVESGGGLIQPGGSLRLSCAVSGFTVSKNYMSWVRQAPGKGLEWVSVVYSGGSKTYADSVKGRFTISRDNSKNTLYLQMNSLRAEDTAVYYCARAVPHSPSSFDIWGQGTMVTVSSEPKSSDKTHTCPPCPAPELLGGPDVFLFPPKPKDTLMISRTPEVTCVVVDVSHEDPEVKFNWYVDGVEVHNAKTKPREEQYNSTYRVVSVLTVLHQDWLNGKEYKCKVSNKALPAPEEKTISKAKGQPREPQVCTLPPSREEMTKNQVSLSCAVKGFYPSDIAVEWESNGQPENNYKTTPPVLDSDGSFFLVSKLTVDKSRWQQGNVFSCSVMHEALHNHYTQKSLSLSPGK
# notes: HER2×CTLA4, structure 18 Fab(cross Fd/LC)-Fc-VH-VH
# B4: Anti-CTLA4 heavy-chain antibody CL5v3, hIgG1 (antibody, V domains shown)
# VH: EVQLVESGGGLIQPGGSLRLSCAVSGFTVSKNYMSWVRQAPGKGLEWVSVVYSGGSKTYADSVKGRFTISRDNSKNTLYLQMNSLRAEDTAVYYCARAVPHSPSSFDIWGQGTMVTVSS
# notes: Heavy-chain-only antibody (HCAb), no light chain; parent of the CTLA4 end of the HER2xCTLA4 bispecifics; also called PR000184
# B5: HER2xCTLA4 bispecific antibody molecule PR002672 (bispecific antibody, human IgG1)
# chain 1: not shown
# chain 2: not shown
# chain 3: B3 chain 3
# notes: Structure 18 Fab(cross Fd/LC)-Fc-VH-VH (trivalent asymmetric); PR000210 Fab, two PR000184 VH in tandem, linker GS_5
# B6: PR004270, PD-L1×4-1BB bispecific antibody molecule of Fab-HCAb symmetric structure (bispecific antibody, human IgG1)
# chain 1: EVQLVESGGGLVQPGGSLRLSCAASGFTFSSYWMSWVRQAPGKGLEWVANIKQEGSEKYYVDSVKGRFTISRDNAKNSLYLQMNSLRAEDTAVYYCARDRAVAGAFDIWGQGTMVTVSSASTKGPSVFPLAPSSKSTSGGTAALGCLVKDYFPEPVTVSWNSGALTSGVHTFPAVLQSSGLYSLSSVVTVPSSSLGTQTYICNVNHKPSNTKVDKKVEPKSC
# chain 2: not shown
# notes: Structure 1 Fab(CL)-VH-Fc; Fab of PR000265, VH of PR001760; linker H1_15, human IgG1 hinge (C220S); human IgG1 (L234A, L235A)
# B7: Anti-PD-L1 91G3H5H3 (D54E), hIgG1 (N297A) (antibody)
# light: B1 light
# heavy: not shown
# notes: hIgG1 (N297A); also called PR000265
# B8: Anti-4-1BB monoclonal antibody utomilumab analog, hIgG2 (antibody, V domains shown)
# VH: EVQLVQSGAEVKKPGESLRISCKGSGYSFSTYWISWVRQMPGKGLEWMGKIYPGDSYTNYSPSFQGQVTISADKSISTAYLQWSSLKASDTAMYYCARGYGIFDYWGQGTLVTVSS
# VL: SYELTQPPSVSVSPGQTASITCSGDNIGDQYAHWYQQKPGQSPVLVIYQDKNRPSGIPERFSGSNSGNTATLTISGTQAMDEADYYCATYTGFGSLAVFGGGTKLTVLG
# notes: tied to PR000483 by the list of control molecules; also called PR000483
# B9: PR001760, anti-4-1BB heavy-chain antibody 1016P0011G10, hIgG1 (antibody, V domains shown)
# VH: EVQLVESGGGVVQPGGSLRLSCAASGFTFSNYAMTWVRQAPEKGLEWVSSISGSGVSTYYADSVKGRFTISRDNSKNTLYLQMTRLTAEDTAVYFCAKEGSSETDDHYYNVDVWGQGTTVTVSS
# notes: Heavy-chain-only antibody (HCAb), no light chain
# What was measured:
# [1] = target: T1, human PD-L1 on cells (CHO-K1/hPDL1; MDA-MB-231) (human, UniProt Q9NZQ7 19-290); assay: competition FACS: biotinylated PD-1 to CHO-K1/hPDL1 cells (Experiment 1)
# T1 construct: whole, on cells
# [2] = target: T2, human CTLA4 on cells (CHO-K1/hCTLA4; HEK293/hCTLA4; 293F-hCTLA4) (human, UniProt P16410 36-223); assay: competition FACS: biotinylated B7-1-Fc to CHO-K1/hCTLA4 cells (Test 1)
# T2 construct: whole, on cells
# [3] = target: T1, human PD-L1 on cells (CHO-K1/hPDL1; …); assay: FACS, CHO-K1/hPDL1 cells (Experiment 1)
# [4] = target: T3, human CTLA4-His protein (ACRO Biosystems, #CT4-H5229) (human, UniProt P16410 36-161); assay: ELISA, coated hCTLA4-His
# T3 construct: extracellular domain; bought; also called hCTLA4-His; human CTLA4 extracellular domain recombinant protein
# [5] = target: T4, biotinylated human CTLA4-Fc protein (ACRO Biosystems, #CT4-H82F3) (human, UniProt P16410 36-161, biotinylated); assay: competition ELISA: biotinylated hCTLA4-Fc to coated B7-1-Fc
# T4 construct: bought; also called human CTLA4 protein
# [6] = target: T5, human PD-L1-His protein (ACRO Biosystems, #PD1-H5229) (human, UniProt Q9NZQ7 19-238); assay: ELISA, coated hPD-L1-His
# T5 construct: extracellular domain; bought; also called hPDL1-His; human PD-L1 extracellular domain recombinant protein
# [7] = target: T3, human CTLA4-His protein (ACRO …); assay: ELISA, coated hCTLA4-His; remark: listed apart in the source
# [8] = target: T2, human CTLA4 on cells (CHO-K1/hCTLA4; …); assay: FACS, CHO-K1/hCTLA4 cells (Test 1)
# [9] = target: T4, biotinylated human CTLA4-Fc protein …; assay: competition ELISA: biotinylated hCTLA4-Fc to coated B7-1-Fc; remark: listed apart in the source
# [10] = target: T2, human CTLA4 on cells (CHO-K1/hCTLA4; …); assay: competition FACS: biotinylated B7-1-Fc to CHO-K1/hCTLA4 cells
# [11] = target: T6, human CTLA4 on CHO-K1/hCTLA4 cells (human, UniProt P16410 36-223); assay: flow cytometry on CHO-K1/hCTLA4 cells, Experiment 1
# T6 construct: whole, on cells; CHO-K1 cell line highly expressing human CTLA4; also called human CTLA4 cell
# [12] = target: T6, human CTLA4 on CHO-K1/hCTLA4 cells; assay: flow cytometry competition: biotinylated human B7-1-Fc on CHO-K1/hCTLA4 cells, Experiment 2
# [13] = target: T6, human CTLA4 on CHO-K1/hCTLA4 cells; assay: flow cytometry competition: biotinylated human B7-1-Fc on CHO-K1/hCTLA4 cells, Experiment 1
# [14] = target: T7, biotinylated human CTLA4-Fc protein (ACRO Biosystems, #CT4-H82F3) (human, UniProt P16410 36-161, biotinylated); assay: competition ELISA: coated human B7-1-Fc, biotinylated human CTLA4-Fc, Experiment 2
# T7 construct: Bought protein; also called human CTLA4 protein
# [15] = target: T7, biotinylated human CTLA4-Fc protein …; assay: competition ELISA: coated human B7-1-Fc, biotinylated human CTLA4-Fc, Experiment 1
# [16] = target: T6, human CTLA4 on CHO-K1/hCTLA4 cells; assay: flow cytometry on CHO-K1/hCTLA4 cells, Experiment 2
# [17] = target: T6, human CTLA4 on CHO-K1/hCTLA4 cells; assay: flow cytometry on CHO-K1/hCTLA4 cells, Experiment 3
# [18] = target: T8, human PD-L1 (programmed death ligand 1) (human, UniProt Q9NZQ7 19-290); assay: flow cytometry (FACS) on CHO-K1/hPDL1 cells, Experiment 2
# T8 construct: whole, on cells; also called hPDL1; CD274
# [19] = target: T9, cynomolgus monkey 4-1BB (cynomolgus monkey); assay: flow cytometry (FACS) on CHO-K1/cyno 4-1BB cells, Experiment 2
# T9 construct: whole, on cells; also called cyno 4-1BB
# [20] = target: T8, human PD-L1 (programmed death ligand 1); assay: flow cytometry (FACS) on CHO-K1/hPDL1 cells, Experiment 3
# [21] = target: T8, human PD-L1 (programmed death ligand 1); assay: flow cytometry (FACS) on CHO-K1/hPDL1 cells, Experiment 1
# [22] = target: T9, cynomolgus monkey 4-1BB; assay: flow cytometry (FACS) on CHO-K1/cyno 4-1BB cells, Experiment 1
# [23] = target: T10, human 4-1BB (human, UniProt Q07011 24-255); assay: flow cytometry, CHO-K1/hu 4-1BB cells
# T10 construct: whole, on cells; also called CD137; TNFRSF9
binder,measurement,setting,value
B1,IC50,[1],0.695 nM
same,Maximum inhibition rate (%),[1],95.9%
same,IC50,[2],9.71 nM
same,Maximum inhibition rate (%),[2],83.3%
same,EC50,[3],0.848 nM
same,Maximum MFI,[3],18000 MFI
same,fold poorer EC50 than PR000184,[4],2.6 fold
same,IC50,[5],4.12 nM
same,Maximum inhibition rate (%),[5],97.3%
same,EC50,[6],0.241 nM
same,Maximum OD450,[6],3.52 OD450
same,EC50,[7],1.57 nM
same,Maximum OD450,[7],2.72 OD450
same,EC50,[8],4.36 nM
same,Maximum MFI,[8],2040 MFI
B2,IC50,[1],0.64 nM
same,Maximum inhibition rate (%),[1],96.7%
same,IC50,[2],71.2 nM
same,Maximum inhibition rate (%),[2],49%
same,EC50,[3],0.737 nM
same,Maximum MFI,[3],18600 MFI
same,IC50,[5],11.6 nM
same,Maximum inhibition rate (%),[5],98.9%
same,EC50,[6],0.152 nM
same,Maximum OD450,[6],3.54 OD450
same,fold weaker IC50 than PR000184,[9],4 fold
same,EC50,[7],10.6 nM
same,Maximum OD450,[7],3.55 OD450
same,EC50,[8],26.1 nM
same,Maximum MFI,[8],1570 MFI
B3,fold poorer IC50 than the parent monoclonal antibody,[10],~4 fold
B4,EC50,[11],1.59 nM
same,Maximum MFI,[11],214 MFI
same,IC50,[12],0.239 nM
same,IC50,[13],1.69 nM
same,Maximum inhibition rate,[13],99.6%
same,IC50,[14],1.69 nM
same,IC50,[15],2.46 nM
same,EC50,[16],1.79 nM
same,Maximum MFI,[16],1080 MFI
same,EC50,[17],3.05 nM
B5,IC50,[12],0.983 nM
same,EC50,[17],2.79 nM
B6,EC50,[18],0.963 nM
same,EC50,[19],1.55 nM
B7,EC50,[20],1.56 nM
same,Maximum MFI,[20],47000 MFI
same,EC50,[21],0.781 nM
same,Maximum MFI,[21],2000 MFI
same,EC50,[18],0.356 nM
B8,EC50,[22],0.347 nM
same,Maximum MFI,[22],5390 MFI
same,EC50,[19],0.337 nM
B9,EC50,[23],3.76 nM
same,Maximum MFI,[23],83600

# From patent US20230322953A1 (HARBOUR BIOMED SHANGHAI, published 2023)
